# In the supplement of paper PMC12338614:
# ± gives the uncertainty stated by the source.
# B1: library; numbered along this chain (parent)
# chain: MEVVDPQQLGMFTEGELMSVGMDTFIHRIDSTEVIYQPRRKRAKLIGKYLMGDLLGEGSYGKVKEVLDSETLCRRAVKILKKKKLRRIPNGEANVKKEIQLLRRLRHKNVIQLVDVLYNEEKQKMYMVMEYCVCGMQEMLDSVPEKRFPVCQAHGYFCQLIDGLEYLHSQGIVHKDIKPGNLLLTTGGTLKISDLGVAEALHPFAADDTCRTSQGSPAFQPPEIANGLDTFSGFKVDIWSAGVTLYNITTGLYPFEGDNIYKLFENIGKGSYAIPGDCGPPLSDLLKGMLEYEPAKRFSIRQIRQHSWFRKKHPPAEAPVPIPPSPDTKDRWRSMTVVPYLEDLHGADEDEDLFDIEDDIIYTQDFTVPGQVPEEEASHNGQRRGLPKAVCMNGTEAAQLSTKSRAEGRAPNPARKACSASSKIRRLSACKQQ
# Variants of: B1
# Assay: STK11 functional score (HeLa growth suppression), rescaled enrichment; synonymous median = 1, nonsense median = 0 (normalised score)
# Conditions: with HeLa; variant type: missense
# Method: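 Deep mutational scan (TileSeq/POPCode codon randomisation) of full-length codon-optimised STK11 cDNA integrated at a Bxb1 landing pad (AAVS1) in HeLa cells. Restoring functional STK11 suppresses HeLa proliferation. Variant frequencies were measured by NGS before and after about two weeks of growth. The error-corrected enrichment log-ratio was rescaled so that synonymous median = 1 and nonsense median = 0, scores above 1 were compressed, and codon-level and three biological replicate scores were combined; error is the bootstrapped standard error. Scale: synonymous median = 1, nonsense median = 0; below 0.5 = damaging.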
row,Variant,STK11 functional score
1,A318Q,1.61 ± 0.29
2,P326E,1.57 ± 0.26
3,P326V,0.813 ± 0.46
4,A397I,1.51 ± 0.27
5,K62G,1.23 ± 0.67
6,I356S,0.889 ± 0.32
7,E351D,0.951 ± 0.63
8,K78N,0.219 ± 0.18
9,V110P,0.481 ± 0.081
10,Y118V,0.988 ± 0.11
11,Y118M,1.62 ± 0.21
12,Y118G,1.23 ± 0.15
13,I161G,0.264 ± 0.092
14,R409P,1.57 ± 0.35
15,G270H,1.07 ± 0.31
16,G135V,1.29 ± 0.3
17,Q100P,0.999 ± 0.14
18,H107T,1.02 ± 0.7
19,E376M,0.943 ± 0.45
20,I172L,0.71 ± 0.11
21,I172G,0.806 ± 0.26
22,C278F,0.811 ± 0.14
23,F366D,1.6 ± 0.14
24,F298Y,0.754 ± 0.77

row,Variant,STK11 functional score
1,A406N,1.58 ± 0.32
2,A406C,1.52 ± 0.2
3,A406W,1.46 ± 0.11
4,F354W,0.138 ± 0.13
5,G171R,1.24 ± 0.38
6,G58P,0.174 ± 0.093
7,K423H,0.899 ± 0.69
8,E317Y,1.04 ± 0.4
9,G394C,1.28 ± 0.15
10,G394M,1.62 ± 0.15
11,E223R,0.921 ± 0.41
12,E223S,0.551 ± 0.1
13,Y156A,0.114 ± 0.64
14,G91K,0.301 ± 0.33
15,E265M,1.25 ± 0.16
16,S271D,1.64 ± 0.2
17,S271Q,1.08 ± 0.65
18,T186N,0.218 ± 0.11
19,Q399V,0.994 ± 0.34
20,Q399E,1.47 ± 0.45
21,P281Y,1.38 ± 0.23
22,S31A,1.44 ± 0.17
23,S31Q,1.37 ± 0.39
24,G163E,-0.0159 ± 0.21

row,Variant,STK11 functional score
1,G163Y,-0.0827 ± 0.069
2,P217E,0.536 ± 0.41
3,P217W,1.66 ± 0.13
4,N247K,0.794 ± 0.19
5,N247A,1.37 ± 0.11
6,P144I,0.87 ± 0.082
7,P144W,1.61 ± 0.15
8,P144L,0.658 ± 0.083
9,L54S,1.2 ± 0.21
10,L113Q,1.02 ± 0.27
11,V66Q,1.08 ± 0.41
12,V66F,0.608 ± 0.089
13,V372H,1.61 ± 0.23
14,G15W,0.148 ± 0.38
15,L341A,1.51 ± 0.15
16,L341V,1.33 ± 0.26
17,L341S,0.93 ± 0.16
18,A76Y,0.13 ± 0.083
19,L167E,-0.113 ± 0.12
20,L167S,0.241 ± 0.14
21,A153D,-0.157 ± 0.1
22,V337T,1.61 ± 0.15
23,H306T,1.54 ± 0.19
24,L353D,1.61 ± 0.16

row,Variant,STK11 functional score
1,L353P,1.12 ± 0.72
2,M125Y,1.31 ± 0.52
3,N94L,0.89 ± 0.17
4,N94F,0.728 ± 0.22
5,P38W,0.876 ± 0.077
6,I303S,-0.209 ± 0.085
7,T189Y,0.71 ± 0.92
8,E120C,0.373 ± 0.24
9,E375A,1.13 ± 0.25
10,N412I,1.21 ± 0.43
11,N412R,1.57 ± 0.2
12,D352L,1.62 ± 0.15
13,D352H,1.27 ± 0.41
14,D352N,1.09 ± 0.8
15,D352W,0.86 ± 0.64
16,E130Q,0.94 ± 0.3
17,P319S,1.4 ± 0.28
18,P319H,1.16 ± 0.43
19,Q137W,1.25 ± 0.087
20,Q137R,0.73 ± 0.12
21,P315L,1.42 ± 0.18
22,P315R,1.32 ± 0.17
23,P315Y,1.29 ± 0.08
24,K84N,0.967 ± 0.3

row,Variant,STK11 functional score
1,A410P,0.257 ± 0.39
2,A410C,1.33 ± 0.13
3,L286R,-0.117 ± 0.22
4,E396I,1.57 ± 0.28
5,R106I,1.71 ± 0.18
6,N266I,1.38 ± 0.35
7,N266R,1.3 ± 0.14
8,S307A,1.49 ± 0.15
9,L184W,0.145 ± 0.09
10,L184P,0.189 ± 0.18
11,D330G,1.23 ± 0.73
12,L282M,0.225 ± 0.27
13,L282H,0.737 ± 0.71
14,T367C,1.4 ± 0.41
15,H174V,0.69 ± 0.11
16,M22F,1 ± 0.23
17,K124L,0.951 ± 0.13
18,K124H,1.3 ± 0.16
19,K124Q,1.61 ± 0.18
20,F148W,0.336 ± 0.079
21,E98S,1.49 ± 0.16
22,G188C,0.212 ± 0.11
23,S428F,1.61 ± 0.12
24,L252V,1.3 ± 0.094

row,Variant,STK11 functional score
1,L252F,1.07 ± 0.39
2,L252M,0.771 ± 0.35
3,I238F,0.0789 ± 0.1
4,I88S,1.16 ± 0.26
5,M136A,0.691 ± 0.12
6,S283C,0.98 ± 0.14
7,C73R,1.21 ± 0.15
8,Q152S,0.733 ± 0.51
9,Q170F,0.834 ± 0.45
10,D53L,0.555 ± 0.21
11,E199W,0.303 ± 0.12
12,E199P,0.87 ± 0.76
13,L427C,0.695 ± 0.25
14,R75L,0.841 ± 0.13
15,L190W,0.118 ± 0.15
16,L190M,1.21 ± 0.18
17,K96S,1.11 ± 0.12
18,F157L,0.19 ± 0.45
19,I177L,0.956 ± 0.15
20,T402V,0.686 ± 0.18
21,T402F,1.18 ± 0.12
22,Q214Y,1.19 ± 0.31
23,Q214H,1.39 ± 0.53
24,L386S,1.45 ± 0.24

row,Variant,STK11 functional score
1,L386V,1.06 ± 0.46
2,L386Q,1.37 ± 0.15
3,R297V,-0.053 ± 0.093
4,R297S,-0.196 ± 0.08
5,F219V,0.825 ± 0.13
6,L344G,0.8 ± 0.41
7,S325D,1.09 ± 0.29
8,P89C,1.29 ± 0.072
9,Y246F,0.678 ± 0.097
10,A414I,1.33 ± 0.28
11,A414D,0.946 ± 0.29
12,D162F,1.15 ± 0.4
13,V338C,0.965 ± 0.28
14,D327N,1.3 ± 0.64
15,D327H,1.21 ± 0.56
16,S334T,1.18 ± 0.13
17,T249A,0.412 ± 0.66
18,T249K,-0.0774 ± 0.081
19,C158M,-0.0261 ± 0.52
20,V63L,0.458 ± 0.099
21,R425A,1.59 ± 0.21
22,D258A,1.33 ± 0.76
23,D258Y,1.49 ± 0.2
